Target: EGFP-tagged full-length AR pQ69 mutant (GFP-ARpQ69) (human) (UniProt P10275)
Test: live-cell single-particle tracking

**Q.** How did the residence time (RT) turn out when “Halo-tagged AR NTD pQ69 with NLS (Halo-ARNTDpQ69-NLS) (from UniProt P10275-1 1-538) (domain or fragment)” was run?
**A.** 16 s
